Measurements as given in IntAct's records for PubMed 18809921.

B1: CCAAT/enhancer-binding protein beta (Homo sapiens), P17676 (parent)
chain: MQRLVAWDPACLPLPPPPPAFKSMEVANFYYEADCLAAAYGGKAAPAAPPAARPGPRPPAGELGSIGDHERAIDFSPYLEPLGAPQAPAPATATDTFEAAPPAPAPAPASSGQHHDFLSDLFSDDYGGKNCKKPAEYGYVSLGRLGAAKGALHPGCFAPLHPPPPPPPPPAELKAEPGFEPADCKRKEEAGAPGGGAGMAAGFPYALRAYLGYQAVPSGSSGSLSTSSSSSPPGTPSPADAKAPPTACYAGAAPAPSQVKSKAKKTVDKHSDEYKIRRERNNIAVRKSRDKAKMRNLETQHKVLELTAENERLQKKVEQLSRELSTLRNLFKQLPEPLLASSGHC

Variants of: B1
Settings: with abc3g_human APOBEC3G

Variant | effect of a mutation on the interaction
MQRLVAWDPACLPLPPPPPAFKSMEVANFYYEADCLAAAYGGKAAPAAPPAARPGPRPPAGELGSIGDHERAIDFSPYLEPLGAPQAPAPATATDTFEAAPPAPAPAPASSGQHHDFLSDLFSDDYGGKNCKKPAEYGYVSLGRLGAAKGALHPGCFAPLHPPPPPPPPPAELKAEPGFEPADCKRKEEAGAPGGGAGMAAGFPYALRAYLGYQAVPSGSSGSLSTSSSSSPPGTPSPADAKAPPTACYAGAAPAPSQVKSKAKKTVDKHSDEYKIRRERNNIAVRKARDKAKMRNLETQHKVLELTAENERLQKKVEQLSRELSTLRNLFKQLPEPLLASSGHC [S288A] | decreasing interaction
